Patent US20110104715A1 (published 2011)

Columns and labels:
[1] = molecular target: T1, Wild-type human APP695 (β-amyloid precursor protein) (human, UniProt P05067-4 18-695); experiment: co-immunoprecipitation with anti-FLAG M2 from co-transfected 293T cells, western blot for APP with 5A3/1G7
T1 construct: also called full-length APP

[2] = molecular target: T1, Wild-type human APP695 (β-amyloid …); experiment: co-immunoprecipitation with anti-FLAG M2 from co-transfected 293T cells, densitometry of the APP band
[3] = molecular target: T2, APPΔC31 (N-terminal 664 amino acids of APP695) (human, UniProt P05067 18-664); experiment: co-immunoprecipitation (anti-FLAG M2) from co-transfected 293T cells, western blot with 5A3/1G7
T2 construct: Used both for the deletion construct and for the product of caspase cleavage of APP at Asp664; also called APPdeltaC31; C-terminal truncated APP

B1: FLAG-tagged catalytic mutant caspase-6 (C163A) (enzyme, UniProt P55212 1-293, looked up)
chain: MSSASGLRRGHPAGGEENMTETDAFYKREMFDPAEKYKMDHRRRGIALIFNHERFFWHLTLPERRGTCADRDNLTRRFSDLGFEVKCFNDLKAEELLLKIHEVSTVSHADADCFVCVFLSHGEGNHIYAYDAKIEIQTLTGLFKGDKCHSLVGKPKIFIIQAARGNQHDVPVIPLDVVDNQTEKLDTNITEVDAASVYTLPAGADFLMCYSVAEGYYSHRETVNGSWYIQDLCEMLGKYGSSLEFTELLTLVNRKVSQRRVDFCKDPSAIGKKQVPCFASMLTKKLHFFPKSN
notes: FLAG tag present; also called C6
- quantitative densitometry intensity of co-immunoprecipitated APP [1]: 1.2

B2: FLAG-tagged catalytic mutant caspase-9 (C287A) (enzyme, UniProt P55211 1-416, looked up)
chain: MDEADRRLLRRCRLRLVEELQVDQLWDALLSRELFRPHMIEDIQRAGSGSRRDQARQLIIDLETRGSQALPLFISCLEDTGQDMLASFLRTNRQAAKLSKPTLENLTPVVLRPEIRKPEVLRPETPRPVDIGSGGFGDVGALESLRGNADLAYILSMEPCGHCLIINNVNFCRESGLRTRTGSNIDCEKLRRRFSSLHFMVEVKGDLTAKKMVLALLELAQQDHGALDCCVVVILSHGCQASHLQFPGAVYGTDGCPVSVEKIVNIFNGTSCPSLGGKPKLFFIQAAGGEQKDHGFEVASTSPEDESPGSNPEPDATPFQEGLRTFDQLDAISSLPTPSDIFVSYSTFPGFVSWRDPKSGSWYVETLDDIFEQWAHSEDLQSLLLRVANAVSVKGIYKQMPGCFNFLRKKLFFKTS
notes: FLAG tag present; also called C9
- quantitative densitometry intensity of co-immunoprecipitated APP [1]: 1.1

B3: FLAG-tagged catalytic mutant caspase-7 (C186A) (enzyme, UniProt P55210 1-303, looked up)
chain: MADDQGCIEEQGVEDSANEDSVDAKPDRSSFVPSLFSKKKKNVTMRSIKTTRDRVPTYQYNMNFEKLGKCIIINNKNFDKVTGMGVRNGTDKDAEALFKCFRSLGFDVIVYNDCSCAKMQDLLKKASEEDHTNAACFACILLSHGEENVIYGKDGVTPIKDLTAHFRGDRCKTLLEKPKLFFIQAARGTELDDGIQADSGPINDTDANPRYKIPVEADFLFAYSTVPGYYSWRSPGRGSWFVQALCSILEEHGKDLEIMQILTRVNDRVARHFESQSDDPHFHEKKQIPCVVSMLTKELYFSQ
notes: FLAG tag present; also called C7
- quantitative densitometry intensity of co-immunoprecipitated APP [1]: 1

B4: FLAG-tagged catalytic mutant caspase-8 (C360A) (enzyme, UniProt Q14790 1-479, looked up)
chain: MDFSRNLYDIGEQLDSEDLASLKFLSLDYIPQRKQEPIKDALMLFQRLQEKRMLEESNLSFLKELLFRINRLDLLITYLNTRKEEMERELQTPGRAQISAYRVMLYQISEEVSRSELRSFKFLLQEEISKCKLDDDMNLLDIFIEMEKRVILGEGKLDILKRVCAQINKSLLKIINDYEEFSKERSSSLEGSPDEFSNGEELCGVMTISDSPREQDSESQTLDKVYQMKSKPRGYCLIINNHNFAKAREKVPKLHSIRDRNGTHLDAGALTTTFEELHFEIKPHDDCTVEQIYEILKIYQLMDHSNMDCFICCILSHGDKGIIYGTDGQEAPIYELTSQFTGLKCPSLAGKPKVFFIQAAQGDNYQKGIPVETDSEEQPYLEMDLSSPQTRYIPDEADFLLGMATVNNCVSYRNPAEGTWYIQSLCQSLRERCPRGDDILTILTEVNYEVSNKDDKKNMGKQMPQPTFTLRKKLVFPSD
notes: Printed as 'caspase-S(C360A)', read as caspase-8; FLAG tag present; also called C8; caspase-S(C360A)
- intensity relative to the other caspases tested [2]: ~200%
- binding result [3]: no binding
- quantitative densitometry intensity of co-immunoprecipitated APP [1]: 2.2
